This note sets out measurements from patent EP1789452B1 (Janssen Pharmaceutica NV, dated 2006).

For orientation: IC50 means the concentration that inhibits the measured activity by half. The term Kd denotes the free concentration of one partner at which half of the binding sites on the other are occupied at equilibrium, for simple one-to-one binding. Higher therefore signals lower affinity.

Test [1] deals with T1, human LGR8 (human, UniProt Q8WXD0 1-754). Description: cell-based or functional assay.
T1 sequence (Q8WXD0 whole entry): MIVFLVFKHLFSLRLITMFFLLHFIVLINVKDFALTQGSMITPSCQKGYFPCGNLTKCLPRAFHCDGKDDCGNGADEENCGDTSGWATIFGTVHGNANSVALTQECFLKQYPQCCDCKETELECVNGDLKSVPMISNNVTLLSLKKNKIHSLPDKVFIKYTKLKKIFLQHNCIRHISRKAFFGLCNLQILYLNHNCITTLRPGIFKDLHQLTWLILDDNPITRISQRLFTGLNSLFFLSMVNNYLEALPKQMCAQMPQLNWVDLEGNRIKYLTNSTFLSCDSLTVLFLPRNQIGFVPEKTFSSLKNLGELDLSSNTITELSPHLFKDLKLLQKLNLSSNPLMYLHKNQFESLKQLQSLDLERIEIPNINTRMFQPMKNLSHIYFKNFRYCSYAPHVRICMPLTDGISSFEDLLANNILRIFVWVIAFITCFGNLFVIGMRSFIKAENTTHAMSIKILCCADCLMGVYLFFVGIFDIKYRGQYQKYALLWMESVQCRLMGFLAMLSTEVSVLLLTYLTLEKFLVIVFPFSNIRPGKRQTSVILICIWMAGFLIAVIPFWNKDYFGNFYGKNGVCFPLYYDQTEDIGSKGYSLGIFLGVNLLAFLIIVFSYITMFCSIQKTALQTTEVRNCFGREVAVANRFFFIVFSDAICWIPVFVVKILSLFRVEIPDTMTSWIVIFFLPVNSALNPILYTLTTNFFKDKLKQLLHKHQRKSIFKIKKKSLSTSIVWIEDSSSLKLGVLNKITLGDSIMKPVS
Test [2] addresses T2, human LGR7 (human, UniProt Q9HBX9 1-757).
T2 sequence (looked up): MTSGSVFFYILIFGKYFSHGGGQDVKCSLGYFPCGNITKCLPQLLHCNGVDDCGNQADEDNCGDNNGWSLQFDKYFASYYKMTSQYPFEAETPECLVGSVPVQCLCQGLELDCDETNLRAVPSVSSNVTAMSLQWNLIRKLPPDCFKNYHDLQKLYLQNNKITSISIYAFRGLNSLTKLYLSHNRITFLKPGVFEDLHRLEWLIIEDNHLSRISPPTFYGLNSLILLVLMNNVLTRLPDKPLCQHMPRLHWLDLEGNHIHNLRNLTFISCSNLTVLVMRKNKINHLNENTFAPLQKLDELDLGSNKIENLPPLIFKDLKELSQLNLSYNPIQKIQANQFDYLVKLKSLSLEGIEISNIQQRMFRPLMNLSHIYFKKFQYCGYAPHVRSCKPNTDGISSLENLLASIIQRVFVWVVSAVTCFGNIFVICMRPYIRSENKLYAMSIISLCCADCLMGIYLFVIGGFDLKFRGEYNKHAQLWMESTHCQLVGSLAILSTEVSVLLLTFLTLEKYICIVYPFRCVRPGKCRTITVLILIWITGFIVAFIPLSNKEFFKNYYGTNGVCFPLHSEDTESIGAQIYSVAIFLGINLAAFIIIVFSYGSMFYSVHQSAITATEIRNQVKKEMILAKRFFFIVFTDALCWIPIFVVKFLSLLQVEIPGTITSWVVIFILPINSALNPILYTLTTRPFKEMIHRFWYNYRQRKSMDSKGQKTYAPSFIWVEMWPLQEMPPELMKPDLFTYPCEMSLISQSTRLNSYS
Description: cell-based or functional assay.

Test [3] addresses T1, human LGR8. Put plainly: cell-based or functional assay. The source holds these as a separate data set.
Test [4] concerns the target T3, human GPCR135 (human, UniProt Q9NSD7 1-469).
T3 sequence: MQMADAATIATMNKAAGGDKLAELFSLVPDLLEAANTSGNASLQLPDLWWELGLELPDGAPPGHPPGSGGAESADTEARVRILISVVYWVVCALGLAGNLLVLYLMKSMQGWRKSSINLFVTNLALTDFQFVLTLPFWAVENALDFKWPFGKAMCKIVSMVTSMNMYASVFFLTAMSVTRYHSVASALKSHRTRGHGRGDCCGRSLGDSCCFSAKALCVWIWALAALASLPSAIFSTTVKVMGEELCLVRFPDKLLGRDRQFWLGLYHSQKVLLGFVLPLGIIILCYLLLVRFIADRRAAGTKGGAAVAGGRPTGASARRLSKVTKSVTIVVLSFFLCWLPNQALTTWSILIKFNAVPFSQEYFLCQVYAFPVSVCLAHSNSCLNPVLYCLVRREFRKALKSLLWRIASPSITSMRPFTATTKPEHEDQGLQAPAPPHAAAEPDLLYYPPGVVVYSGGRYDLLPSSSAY
Description: cell-based or functional assay.

Test [5] addresses T1, human LGR8. Description: competition with 100 pM [125I]-INSL3, live COS-7 cells with human LGR8.
In test [6] the target is T3, human GPCR135. Put plainly: competition with 100 pM [125I]-relaxin-3, COS-7 membranes with human GPCR135.
Test [7] concerns the target T4, human GPCR142 (human, UniProt Q8TDU9 1-374). Put plainly: competition with 100 pM [125I]-relaxin-3, COS-7 membranes with human GPCR142.
The target of test [8] is T2, human LGR7. Put plainly: competition with 100 pM [125I]-relaxin-3, live COS-7 cells with human LGR7.
In test [9] the target is T2, human LGR7. Put plainly: discussion of the radioligand binding results of Examples 3-5.
Test [10] addresses T3, human GPCR135. The test is described as above.
The target of test [11] is T4, human GPCR142. Put plainly: cell-based or functional assay.
The target in another test is T5, rat LGR7 (rat, UniProt Q6R6I6 1-758).
T5 construct: whole, on cells; Membranes of COS-7 cells transiently expressing rat LGR7; also called rat recombinant LGR7
T5 sequence (looked up): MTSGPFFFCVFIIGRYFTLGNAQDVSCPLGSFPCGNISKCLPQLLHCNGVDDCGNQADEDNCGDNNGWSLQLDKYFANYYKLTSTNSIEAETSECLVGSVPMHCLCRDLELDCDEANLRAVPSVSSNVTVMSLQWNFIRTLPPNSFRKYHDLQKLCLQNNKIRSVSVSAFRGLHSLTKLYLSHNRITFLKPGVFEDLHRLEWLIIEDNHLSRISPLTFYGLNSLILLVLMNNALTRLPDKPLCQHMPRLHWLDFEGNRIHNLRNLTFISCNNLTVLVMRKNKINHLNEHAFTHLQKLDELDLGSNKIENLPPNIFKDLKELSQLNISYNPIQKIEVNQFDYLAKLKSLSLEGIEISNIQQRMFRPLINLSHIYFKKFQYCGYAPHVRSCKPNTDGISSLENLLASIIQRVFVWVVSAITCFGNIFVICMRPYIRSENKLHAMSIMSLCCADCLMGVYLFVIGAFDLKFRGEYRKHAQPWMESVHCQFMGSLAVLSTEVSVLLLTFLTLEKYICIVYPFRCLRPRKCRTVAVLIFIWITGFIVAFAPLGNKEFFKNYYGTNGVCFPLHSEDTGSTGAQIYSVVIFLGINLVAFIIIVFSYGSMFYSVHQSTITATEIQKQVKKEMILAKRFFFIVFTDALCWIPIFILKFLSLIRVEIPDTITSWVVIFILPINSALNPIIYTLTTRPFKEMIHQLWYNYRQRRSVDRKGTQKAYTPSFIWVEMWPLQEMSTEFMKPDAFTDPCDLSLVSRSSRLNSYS
Description: competition with 100 pM [125I] human relaxin-2, COS-7 membranes with rat LGR7.

The target in test [12] is T6, rat GPCR135 (rat, UniProt Q5Y987 29-469).
T6 construct: whole, on cells; also called rat recombinant GPCR135
Put plainly: competition with 100 pM [125I] human R3, COS-7 membranes with rat GPCR135.

In test [13] the target is T2, human LGR7. Description: radioligand competition, human LGR7 (Table 1 prints 724 nM). (In general: In a radioligand displacement assay an active substance lowers the binding of a labelled ligand.)
Test [14] concerns the target T1, human LGR8. Put plainly: competition with 100 pM [125I]-INSL3, live COS-7 cells expressing human LGR8; ND denotes no activity was detected.
The target of test [15] is T6, rat GPCR135. Put plainly: ratio of IC50 values from radioligand competition on rat GPCR135 and rat LGR7.
The target in test [16] is T6, rat GPCR135. Description: quantitative receptor autoradiography, displacement of 7 pM [125I]R3/I5 from rat brain sections; cortex; unit from paragraph 235.
Test [17] has as its target T6, rat GPCR135. Put plainly: quantitative receptor autoradiography, displacement of 7 pM [125I]R3/I5 from rat brain sections; superior colliculus; unit from paragraph 235.
Test [18] deals with T2, human LGR7. Description: cell-based or functional assay. The source holds these as a separate data set.
Test [19] addresses T6, rat GPCR135. Put plainly: quantitative receptor autoradiography, displacement of 7 pM [125I]R3/I5 from rat brain sections; olfactory bulb; unit from paragraph 235.
In test [20] the target is T4, human GPCR142. Put plainly: cell-based or functional assay. The source holds these as a separate data set.
For test [21], the target named is T3, human GPCR135. Description: cell-based or functional assay. This is another data set of the same source.
In test [22] the target is T2, human LGR7. Description: radioligand competition, human LGR7 (Table 1 prints 12.9).
Test [23] concerns the target T1, human LGR8. Description: radioligand competition with [125I]-INSL3, human LGR8; lower end tied to R3/I3 by Table 1.

Ends that are not written are not given here. Bounds are passed on as bounds.

T4 sequence (Q8TDU9 whole entry L329S, form in doubt): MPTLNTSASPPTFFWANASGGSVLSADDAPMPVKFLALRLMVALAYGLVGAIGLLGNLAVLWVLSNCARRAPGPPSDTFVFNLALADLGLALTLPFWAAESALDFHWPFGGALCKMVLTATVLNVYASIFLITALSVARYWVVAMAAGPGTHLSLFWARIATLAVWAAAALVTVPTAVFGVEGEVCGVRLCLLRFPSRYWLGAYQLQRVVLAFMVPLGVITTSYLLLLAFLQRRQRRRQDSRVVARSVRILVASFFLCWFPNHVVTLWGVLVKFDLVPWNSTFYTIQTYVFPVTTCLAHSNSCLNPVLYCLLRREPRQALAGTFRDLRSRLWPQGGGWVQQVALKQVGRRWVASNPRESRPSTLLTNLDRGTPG

B1: human INSL3 (ligand)
chain 1: PTPEMREKLCGHHFVRALVRVCGGPRWSTEA
chain 2: AAATNPARYCCLSGCTQQDLLTLCPY
modifications: ends and bridges not checked; also: also used as 125I-labelled tracer
For B1, the “induction of β-galactosidase activity in SK-N-MC/β-gal cells, EC50” value with human LGR8 [1] amounted to 0.16 nM.

B2: Relaxin-3/Relaxin-1 (R3/R1) chimeric polypeptide (ligand, human)
chain 1: RAAPYGVRLCGREFIRAVIFTCGGSRW
chain 2: RPYVALFEKCCLIGCTKRSLAKYC
modifications: disulfide (positions not given here)
notes: domain: A-chain; Two chains joined by disulfide bonds; Made in COS-7 cells with furin, FLAG tag removed with enterokinase
For B2, the “EC50, ligand stimulated β-galactosidase expression” value is 4.5 nM with human LGR7 [2] and more than 1000 nM with human LGR8 [3]. Also, the “EC50, inhibition of forskolin stimulated β-galactosidase expression” value (“EC50, inhibition” for short) with human GPCR135 [4] was determined as 1.8 nM. In addition, the IC50 was more than 1000 nM with human LGR8 [5], 2.9 nM with human GPCR135 [6], 2.6 nM with human GPCR142 [7] and 5.1 nM with human LGR7 [8].

B3: Relaxin-3/INSL5 (R3/I5) chimeric polypeptide (ligand)
chain 1: RAAPYGVRLCGREFIRAVIFTCGGSRW
chain 2: DLQTLCCTDGCSMTDLSALC
modifications: disulfide (positions not given here); also: two chains joined by disulfide bonds, places not given here
notes: Two chains joined by disulfide bonds; FLAG tag removed with enterokinase; also called R3/I5 chimera; I5/R3
Take B3: the Kd in the test with human LGR7 [9] was approximately 500 nM; with human GPCR135 [10], approximately 0.5 nM. Besides, in the test with human LGR7 [2], the “EC50, ligand stimulated β-galactosidase expression” value turned out to be 412 nM. Moreover, the “EC50, inhibition” value with human GPCR142 [11] was 0.91 nM; with human GPCR135 [4], 0.45 nM. Also, the IC50 with human GPCR135 [6] is 0.68 nM; with rat LGR7, more than 400 nM; with rat GPCR135 [12], 0.5 nM; with human LGR7 [13], approximately 500 nM; in the test with human GPCR142 [7], 1.4 nM; in the test with human LGR7 [8] it was 724 nM. For the same molecule, in the test with human LGR8 [14], the binding result is given as “no binding”. Also, in the test with rat GPCR135 [15], the “fold selective over rat LGR7” value stood at 800 fold.

B4: human relaxin-3 (ligand)
chain 1: RAAPYGVRLCGREFIRAVIFTCGGSRW
chain 2: DVLAGLSSSCCKWGCSKSEISSLC
modifications: ends and bridges not checked; also: also used as 125I-labelled tracer
notes: domain: A-chain; Mature two-chain hormone; also called R3; INSL7
For the molecule B4, the IC50 with rat GPCR135 [16] turned out to be 0.4 nM; with rat GPCR135 [17], 0.3 nM; with rat GPCR135 [19] it was 0.3 nM. Moreover, the “stimulation of β-galactosidase activity in SK-N-MC/β-gal cells, EC50” value with human LGR7 [18] is 1.4 nM.

B5: Relaxin-3/Relaxin-2 (R3/R2) chimeric polypeptide (ligand, human)
chain 1: RAAPYGVRLCGREFIRAVIFTCGGSRW
chain 2: QLYSALANKCCHVGCTKRSLARFC
modifications: disulfide (positions not given here); also: two chains joined by disulfide bonds, pairing not given here
notes: domain: A-chain; Two chains joined by disulfide bonds; FLAG tag removed
On to B5, for which the “EC50, ligand stimulated β-galactosidase expression” value is 1.1 nM with human LGR7 [2] and 575 nM with human LGR8 [3]. Further, the “EC50, inhibition” value with human GPCR142 [11] is 1.4 nM; with human GPCR135 [4], 1.1 nM. The IC50 with human LGR8 [5] came to 615 nM; with human GPCR135 [6], 1.2 nM; in the test with human GPCR142 [7] it was 1.8 nM; with human LGR7 [8], 1.5 nM.

With RAAPYGVRLCGREFIRAVIFTCGGSRW [synthetic human relaxin-3 B-chain], the “inhibition of forskolin-stimulated β-galactosidase activity in SK-N-MC/β-gal cells, EC50” value in the test with human GPCR142 [20] is 125 nM; with human GPCR135 [21], 88 nM.

B6: Relaxin-3/INSL6 (R3/I6) chimeric polypeptide (ligand, human)
chain 1: RAAPYGVRLCGREFIRAVIFTCGGSRW
chain 2: GYSEKCCLTGCTKEELSIAC
modifications: disulfide (positions not given here)
notes: as for B5
B6: the IC50 with human LGR7 [22] came out at 15 nM; with human GPCR135 [6], 9.5 nM; with human GPCR142 [7], 11.3 nM; with human LGR7 [8] it was 12.9 nM. Besides, in the test with human LGR7 [2], the “EC50, ligand stimulated β-galactosidase expression” value is 13.7 nM. Besides, the “EC50, inhibition” value with human GPCR142 [11] was 11.2 nM; in the test with human GPCR135 [4] it was 8.4 nM. Further, the binding result with human LGR8 [14] is given as “no binding”.

B7: Relaxin-3/INSL3 (R3/I3) chimeric polypeptide (ligand, human)
chain 1: RAAPYGVRLCGREFIRAVIFTCGGSRW
chain 2: NPARYCCLSGCTQQDLLTLC
modifications: disulfide (positions not given here)
notes: as for B5
Turning to B7, the results for the “EC50, ligand stimulated β-galactosidase expression” value in the test with human LGR7 [2] and with human LGR8 [3] were 2.5 nM and 258 nM, respectively. In addition, in the test with human GPCR142 [11], the “EC50, inhibition” value came out at 2.9 nM. In addition, the IC50 with human LGR8 [23] was found to be 500 nM; with human LGR8 [5], 475 nM; with human GPCR142 [7], 3.5 nM; with human LGR7 [8] it was 2.3 nM.
